Values belong to the binder of their own block, whether it stands above or below them.
B2: endogenous mature Omi from HEK293 cell extracts (38 kDa band) (enzyme)
chain: AVPSPPPASPRSQYNFIADVVEKTAPAVVYIEILDRHPFLGREVPISNGSGFVVAADGLIVTNAHVVADRRRVRVRLLSGDTYEAVVTAVDPVADIATLRIQTKEPLPTLPLGRSADVRQGEFVVAMGSPFALQNTITSGIVSSAQRPARDLGLPQTNVEYIQTDAAIDFGNSGGPLVNLDGEVIGVNTMKVTAGISFAIPSDRLREFLHRGEKKNSSSGISGSQRRYIGVMMLTLSPSILAELQLREPSFPDVQHGVLIHKVILGSPAHRAGLRPGDVILAIGEQMVQNAEDVYEAVRTQSQLAVQIRRGRETLTLYVTPEVTE
notes: also called HtrA2

Columns and labels:
[1] = target: T1, Omi-deltaAVPS (C-terminal His6-tagged recombinant mature Omi with the AVPS motif deleted) (human, UniProt O43464 138-458); test: GST pull-down with purified recombinant proteins, Coomassie gel
T1 construct: also called Omi-ΔAVPS
T1 sequence: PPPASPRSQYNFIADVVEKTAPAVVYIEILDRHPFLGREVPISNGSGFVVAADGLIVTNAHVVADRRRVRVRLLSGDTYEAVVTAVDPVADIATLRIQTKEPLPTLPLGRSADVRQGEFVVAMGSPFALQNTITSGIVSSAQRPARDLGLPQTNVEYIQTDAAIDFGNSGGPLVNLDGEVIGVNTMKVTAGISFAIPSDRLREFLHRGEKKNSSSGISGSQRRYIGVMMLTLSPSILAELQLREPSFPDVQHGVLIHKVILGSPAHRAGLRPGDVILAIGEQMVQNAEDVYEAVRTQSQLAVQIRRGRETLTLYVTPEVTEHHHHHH
Source text: To determine whether a recombinant Omi lacking the first 133 residues (mature Omi) can interact with the GST-BIR3 fusion protein, this protein was expressed with a C-terminal His6 tag in bacteria and purified to apparent homogeneity (see FIG. 7B). […] FIGS. 7A and 7B show scanned images of Coomassie stained gels representing SDS-PAGE analysis of purified C-terminal His6-tagged recombinant wild type mature Omi (WT), Omi-ΔAVPS, Omi-S306A, and mature Smac (FIG. 7A) and recombinant Omi and Smac proteins with GST-BIR1, 2, GST-BIR3 or GST-BIR3-E314S fusion proteins (FIG. 7B). Both recombinant mature Omi and Smac were able to interact equally with the wild type GST-BIR3 protein but not with the GST-BIR3-E314S mutant ([…]). Mature Omi and Smac were also able to interact with the GST-BIR1, 2 fusion protein. […] However, deletion of the AVPS motif of mature Omi completely abolished its interaction with the GST-BIR3 fusion protein.

[2] = target: T2, M-Omi-GFP (active Omi-GFP fusion protein without the MTS, initiator methionine retained) (human, UniProt O43464 134-458); test: GST-BIR3 precipitation of transfected cell extracts, immunoblot
T2 construct: also called Omi134-458-GFP; not shown: C-terminal GFP tag
T2 sequence: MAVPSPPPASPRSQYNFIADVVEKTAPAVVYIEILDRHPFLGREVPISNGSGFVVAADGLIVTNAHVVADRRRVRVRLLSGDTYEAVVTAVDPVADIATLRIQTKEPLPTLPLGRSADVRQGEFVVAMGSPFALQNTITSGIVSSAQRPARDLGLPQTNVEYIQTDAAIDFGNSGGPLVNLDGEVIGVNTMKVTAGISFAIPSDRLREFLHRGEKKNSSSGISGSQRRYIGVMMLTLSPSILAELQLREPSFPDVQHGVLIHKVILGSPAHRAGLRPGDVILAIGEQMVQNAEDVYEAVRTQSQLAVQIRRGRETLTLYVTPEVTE

[3] = target: T3, M-Omi-S/A-GFP (inactive S306A Omi-GFP fusion protein without the MTS, initiator methionine retained) (human, UniProt O43464 134-458); test: as above
T3 construct: not shown: C-terminal GFP tag
T3 sequence: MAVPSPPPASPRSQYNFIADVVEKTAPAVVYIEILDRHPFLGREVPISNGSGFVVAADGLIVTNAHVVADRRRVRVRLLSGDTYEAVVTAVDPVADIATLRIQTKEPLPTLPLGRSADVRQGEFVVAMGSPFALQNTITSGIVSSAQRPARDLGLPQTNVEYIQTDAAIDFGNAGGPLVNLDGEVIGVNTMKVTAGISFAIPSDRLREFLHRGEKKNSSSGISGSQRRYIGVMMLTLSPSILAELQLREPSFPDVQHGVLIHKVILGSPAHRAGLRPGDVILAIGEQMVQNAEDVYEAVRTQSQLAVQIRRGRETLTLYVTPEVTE

[4] = target: T4, Omi-S/A with the AVPS motif mutated to SSAS, from GFP-IETD-SSA (human, UniProt O43464 137-458); test: GST-BIR3 precipitation of transfected 293T cell extracts, Flag immunoblot
T4 construct: expressed as GFP-IETD fusion
T4 sequence: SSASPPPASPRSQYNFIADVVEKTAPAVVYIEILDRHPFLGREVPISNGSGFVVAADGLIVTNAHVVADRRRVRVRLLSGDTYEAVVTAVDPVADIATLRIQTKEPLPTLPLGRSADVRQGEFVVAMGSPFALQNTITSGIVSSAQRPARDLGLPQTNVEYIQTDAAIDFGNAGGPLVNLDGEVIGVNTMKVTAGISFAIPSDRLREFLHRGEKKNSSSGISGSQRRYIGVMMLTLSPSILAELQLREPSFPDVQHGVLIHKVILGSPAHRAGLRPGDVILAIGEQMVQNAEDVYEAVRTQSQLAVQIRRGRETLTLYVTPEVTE

XIAP [5] = target: T5, XIAP (human, UniProt P98170 1-497); test: far-western blot with ^35S-labeled in vitro translated XIAP
T5 construct: also called ^35S-labeled in vitro translated XIAP; ^35S-XIAP
T5 sequence (P98170 whole entry): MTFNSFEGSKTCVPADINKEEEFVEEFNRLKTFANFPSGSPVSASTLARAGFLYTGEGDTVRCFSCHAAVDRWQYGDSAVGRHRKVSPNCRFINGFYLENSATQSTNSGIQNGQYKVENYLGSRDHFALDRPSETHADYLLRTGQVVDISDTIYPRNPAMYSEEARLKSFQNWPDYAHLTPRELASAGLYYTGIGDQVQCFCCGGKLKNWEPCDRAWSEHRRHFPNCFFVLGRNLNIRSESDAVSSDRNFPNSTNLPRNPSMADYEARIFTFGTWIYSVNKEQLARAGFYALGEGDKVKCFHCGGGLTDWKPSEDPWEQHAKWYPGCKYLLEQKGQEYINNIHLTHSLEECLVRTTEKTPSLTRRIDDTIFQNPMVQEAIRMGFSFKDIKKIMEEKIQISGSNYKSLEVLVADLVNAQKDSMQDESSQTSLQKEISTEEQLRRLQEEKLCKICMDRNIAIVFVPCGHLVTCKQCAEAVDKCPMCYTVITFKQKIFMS
Source text: As mentioned above, the mechanism of IAP inhibition of caspases is conserved in mammals and insects. Accordingly, it is thought that other mammalian IAP-binding proteins are still undiscovered. To identify such proteins, a GST-BIR3 fusion protein was used as an affinity reagent to purify new IAP binding proteins from extracts of human HEK293 cells and mouse heart, kidney, liver and spleen tissues. […] Cells were homogenized and centrifuged once at 20,000×g and the supernatant was then subjected to centrifugation at 100,000×g. The resultant supernatant was pre-cleared with Glutathion-Sepharose beads and then incubated with GST-BIR3 bound to Glutathion-Sepharose beads for 12 hours at 4° C. The mixture was centrifuged at 500 rpm for three minutes and the GST-BIR3 bead pellet was washed three times in the lysis buffer. After binding the extracts to the GST-BIR3 protein, the bound proteins were eluted with 200 μM of the Smac IAP-binding motif peptide AVPIA (SEQ ID NO:2) at 37° C. for one hour and analyzed by far-western blotting with ³⁵S-labeled in vitro translated XIAP. Specifically, the affinity-purified proteins were subjected to SDS-PAGE electrophoresis and then transferred to a nitrocellulose membrane using standard western blotting technique. […]

XIAP [6] = target: T5, XIAP; test: co-immunoprecipitation with Flag antibody from 293T cells, XIAP immunoblot
[7] = target: B2; test: immunodepletion of 293 extracts with Smac monoclonal antibody, then GST-BIR3 pull-down
Protocol: The undepleted and depleted extracts were incubated with the GST-BIR3 protein and the bound proteins were eluted as above. The eluates were then analyzed by far-western blotting with ³⁵S-XIAP and by western blotting with the Smac antibody as described above (see FIG. 4, left and right panels, respectively). […] The asterisk in FIG. 4 indicates non-specific bands and the arrow indicates the IgG band.

binding result [1]: no binding
binding result [2]: no binding
binding result [3]: no binding
binding result [4]: no binding
B1: GST-BIR3 fusion protein (BIR3 domain of human XIAP fused to GST) (other, UniProt P98170 238-358, looked up)
chain: RSESDAVSSDRNFPNSTNLPRNPSMADYEARIFTFGTWIYSVNKEQLARAGFYALGEGDKVKCFHCGGGLTDWKPSEDPWEQHAKWYPGCKYLLEQKGQEYINNIHLTHSLEECLVRTTEK
notes: domain: BIR3; also called wild type GST-BIR3; XIAP-BIR3; not shown: glutathione-S-transferase (GST) fusion partner

Binder: B2
binding result (XIAP [5]): binds

binding result (XIAP [6]): no binding
B3: mature Omi with the AVPS motif mutated to AAAS, processed in 293T cells from a C-terminal Flag-tagged mutant precursor (enzyme)
chain: AAASPPPASPRSQYNFIADVVEKTAPAVVYIEILDRHPFLGREVPISNGSGFVVAADGLIVTNAHVVADRRRVRVRLLSGDTYEAVVTAVDPVADIATLRIQTKEPLPTLPLGRSADVRQGEFVVAMGSPFALQNTITSGIVSSAQRPARDLGLPQTNVEYIQTDAAIDFGNSGGPLVNLDGEVIGVNTMKVTAGISFAIPSDRLREFLHRGEKKNSSSGISGSQRRYIGVMMLTLSPSILAELQLREPSFPDVQHGVLIHKVILGSPAHRAGLRPGDVILAIGEQMVQNAEDVYEAVRTQSQLAVQIRRGRETLTLYVTPEVTE
notes: also called AAAS mutant; not shown: C-terminal Flag tag

binding result [7]: no binding
B4: endogenous mature Smac/Diablo from HEK293 cell extracts (23 kDa band) (other, human, UniProt Q9NR28 56-239, looked up)
chain: AVPIAQKSEPHSLSSEALMRRAVSLVTDSTSTFLSQTTYALIEAITEYTKAVYTLTSLYRQYTSLLGKMNSEEEDEVWQVIIGARAEMTSKHQEYLKLETTWMTAVGLSEMAAEAAYQTGADQASITARNHIQLVKLQVEEVHQLSRKAETKLAEAQIEELRQKTQEEGEERAESEQEAYLRED
notes: mature

— patent publication US20030073629A1 (published 2003)
